Experiment [1] deals with T1, rat SNAP-tagged mGlu2 receptor (wild-type rat mGlu2 subunit with an HA-tag and a SNAP inserted just after the … (rat, UniProt P31421 19-872, SNAP tag labelled with SNAP-Lumi4-Tb in the TR-FRET binding assay)). The experiment is described as follows: cell-based or functional assay.
In experiment [2] the target is T1, rat SNAP-tagged mGlu2 receptor …. The experiment is described as follows: TR-FRET saturation binding on HEK293 cells with Lumi4-Tb-labelled rat SNAP-mGlu2, anti-6His-d2; active conformation (1 uM LY379268). On the procedure: (§1) Each datapoint represents the mean±s.d. of an individual experiment performed in triplicate.
(§2) Binding experiments by TR-FRET. HEK293 cells (ATCC CRL-1573) were transfected with rat SNAP-tagged mGlu2 receptors (Maurel et al. Nature Methods 2008). 24 h after transfection, cells were labeled in 150 mm cell culture plate with 100 nM SNAP-Lumi4Tb in DMEM-GlutaMAX for 1 h at 37° C., and then washed 3 times with Krebs buffer (10 mM Hepes pH7.4, 146 mM NaCl, 4.2 mM KCl, 1 mM CaCl2, 0.5 mM MgCl2, 5.6 mM glucose and bovine serum albumin 0.1%). Cells were detached using cell dissociation buffer (Sigma aldrich) transferred at 10 000 cells per well in a white 384-well plate (Greiner bio-one, PS, F-bottom, small volume, Hibase, medium binding). Increasing concentration of His-tagged nanobodies together with either 1 μM LY379268 (Tocris, Bio-techne, France) or 1 μM LY341495 (Tocris, Bio-techne, France) and with 200 nM of anti-6His-d2 (Tocris, Bio-techne, France) were applied on Lumi4Tb-labeled cells in a final volume of 20 μL and incubated overnight at 20° C. FRET signal was determined by measuring the sensitized acceptor emission (665 nm) and Tb donor emission (620 nm) using a 50 μs delay and 450 us integration time upon excitation at 337 nm on a PHERAstar FS plate-reader (BMG LabTech, Ortenberg, Germany). TR-FRET (or HTRF) ratio (665 nm/620 nm×10⁴, Cisbio patent 8 U.S. Pat. No. 5,527,684) was calculated for preventing interferences due to medium variability and chemical compound or to normalize experiments when using cells expressing different receptor levels.
Background: Time-resolved FRET reads energy transfer from a long-lived donor to a nearby acceptor.

Experiment [3] has the same target. The experiment is described as follows: TR-FRET saturation binding on HEK293 cells with Lumi4-Tb-labelled rat SNAP-mGlu2, anti-6His-d2; inactive conformation (1 uM LY341495). On the procedure:
as §1, §2

Experiment [4] has the same target. The experiment is described as follows: cell-based or functional assay. The source holds these as a separate data set.
Experiment [5] has the same target. The experiment is described as follows: TR-FRET saturation binding on HEK293 cells with SNAP-mGlu2, in the presence of agonist LY379268 1 uM; reference IGF1168. On the procedure:
as §2, with “Increasing concentration of His-tagged nanobodies together with either 1 μM LY379268 (Tocris, Bio-techne, France) or 1 μM LY341495 (Tocris, Bio-techne, France) and with 200 nM of anti-6His-d2 (Tocris, Bio-techne, France) were applied on Lumi4Tb-labeled cells in a final volume of 20 μL and incubated overnight at 20° C.” left out, “levels. […]” for “levels.”

Experiment [6] has the same target. The experiment is described as follows: apparent affinity, TR-FRET saturation binding on HEK293 cells with SNAP-mGlu2, in the presence of agonist LY379268 1 uM. On the procedure:
as §2, with “Increasing concentration of His-tagged nanobodies together with either 1 μM LY379268 (Tocris, Bio-techne, France) or 1 μM LY341495 (Tocris, Bio-techne, France) and with 200 nM of anti-6His-d2 (Tocris, Bio-techne, France) were applied on Lumi4Tb-labeled cells in a final volume of 20 μL and incubated overnight at 20° C.” left out, “levels. […]” for “levels.”

In experiment [7] the target is T2, mouse mGlu2 receptor in brain tissue sections of wild-type C57BL/6J mice (mouse, UniProt Q14BI2 19-872).
T2 construct: whole, on cells; Endogenous receptor in fixed tissue sections; mGlu2-/- mouse sections were the negative control
T2 sequence (Q14BI2 19-872): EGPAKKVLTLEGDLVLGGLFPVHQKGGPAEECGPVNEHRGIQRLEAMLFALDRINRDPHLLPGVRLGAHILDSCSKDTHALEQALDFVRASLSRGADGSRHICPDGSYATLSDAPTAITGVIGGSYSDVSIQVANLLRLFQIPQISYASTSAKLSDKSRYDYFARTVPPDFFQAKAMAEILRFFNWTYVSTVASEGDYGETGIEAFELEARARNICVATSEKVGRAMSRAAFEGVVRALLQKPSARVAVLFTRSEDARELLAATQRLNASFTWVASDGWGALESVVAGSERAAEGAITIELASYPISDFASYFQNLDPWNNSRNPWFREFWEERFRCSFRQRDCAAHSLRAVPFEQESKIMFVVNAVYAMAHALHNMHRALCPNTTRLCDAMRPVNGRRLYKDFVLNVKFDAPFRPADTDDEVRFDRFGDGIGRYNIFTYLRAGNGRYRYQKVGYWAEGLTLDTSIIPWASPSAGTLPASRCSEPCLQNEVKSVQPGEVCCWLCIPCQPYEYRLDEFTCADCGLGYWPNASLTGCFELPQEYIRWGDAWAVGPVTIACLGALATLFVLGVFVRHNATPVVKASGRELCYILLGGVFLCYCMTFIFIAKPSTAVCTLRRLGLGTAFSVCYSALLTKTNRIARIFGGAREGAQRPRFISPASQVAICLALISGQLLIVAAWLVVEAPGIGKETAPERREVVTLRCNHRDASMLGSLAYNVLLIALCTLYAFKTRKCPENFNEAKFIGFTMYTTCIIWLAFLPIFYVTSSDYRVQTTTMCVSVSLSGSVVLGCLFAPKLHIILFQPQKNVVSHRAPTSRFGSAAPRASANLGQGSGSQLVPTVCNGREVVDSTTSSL
The experiment is described as follows: ex vivo immunohistofluorescence on mouse brain sections; no labeling in sections from mGlu2-/- mouse. The procedure: Histological processing of brains. Wild-type C57BL/6J mice were purchased from Janvier Labs and brains from mGlu2−/− mice were kindly provided by Dr. Gonzalez-Maeso. Mice were anesthetized (Euthasol Vet 8%, Alcyon, Pau, France) and sacrificed by a cardiac perfusion of 4% paraformaldehyde (PFA). Brains were extracted and fixed in a 4% PFA solution (Euromedex, Souffelweyersheim, France) overnight at 4° C. Brains were rinsed in PBS and cryoprotected in a 30% sucrose solution for 4 days at 4° C. Brains were then included in OCT (Tissue-Tek, Sakura Finetek, Villeneuve d′Asq, France), quickly frozen in acetone chilled on dry ice and conserved at −80° C. until use. Frozen brains included in OCT, were put at −20° C. 24 h prior cryo-sectioning. They were then mounted on a cryostat (Leica, Nanterre, France) and 16 um coronal or sagittal sections were performed and directly mounted on Superfrost Plus glass slides (Microm) and kept at −20° C., until use. For immunohistofluorescence experiments, coronal and sagittal brain tissue sections of WT and mGlu2^{-/-} mice were blocked 1 h at 25° C. with a blocking solution (3% BSA, 0.1% Triton X100 in PBS) and incubated with IGF1202-d2 (200 nM), overnight at 4° C., to label mGlu2 receptors. Sections were washed with PBS with distilled water and mounted using […]

T1 sequence (P31421 19-872): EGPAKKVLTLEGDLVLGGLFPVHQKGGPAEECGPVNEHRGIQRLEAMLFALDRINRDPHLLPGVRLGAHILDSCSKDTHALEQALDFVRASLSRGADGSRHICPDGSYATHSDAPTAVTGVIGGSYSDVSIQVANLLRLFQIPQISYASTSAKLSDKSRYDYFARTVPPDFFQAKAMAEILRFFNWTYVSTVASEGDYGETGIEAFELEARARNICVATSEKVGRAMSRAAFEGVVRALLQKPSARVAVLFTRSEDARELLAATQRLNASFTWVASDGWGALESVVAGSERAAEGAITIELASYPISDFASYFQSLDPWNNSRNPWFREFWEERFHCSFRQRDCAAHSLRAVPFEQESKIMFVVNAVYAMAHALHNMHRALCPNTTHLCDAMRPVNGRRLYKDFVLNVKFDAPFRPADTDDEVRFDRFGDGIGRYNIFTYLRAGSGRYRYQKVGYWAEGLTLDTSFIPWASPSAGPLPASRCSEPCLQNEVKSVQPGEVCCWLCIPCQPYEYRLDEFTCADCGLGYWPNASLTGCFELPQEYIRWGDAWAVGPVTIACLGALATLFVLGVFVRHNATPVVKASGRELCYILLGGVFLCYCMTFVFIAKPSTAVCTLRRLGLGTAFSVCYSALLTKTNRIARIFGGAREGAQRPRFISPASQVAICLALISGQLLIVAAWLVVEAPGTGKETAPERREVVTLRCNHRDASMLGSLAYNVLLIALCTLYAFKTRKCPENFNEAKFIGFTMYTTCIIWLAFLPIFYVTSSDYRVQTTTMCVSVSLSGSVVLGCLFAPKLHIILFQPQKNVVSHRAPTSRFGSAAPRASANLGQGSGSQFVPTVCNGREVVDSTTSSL

B1: IGF-1251 (IGF-1159 GS IGF-1168) (VHH)
chain: QVQLVQSGGGLVQAGGSLRLSCAASGRTFSSFAMAWFRQAPGKEREFVAAISWSGSTGHADSVKGRFTITRDNAKNTVFLQMNSLKPEDTAVYYCALGKGSSYYYSPSGYDYWGQGTQVTVSSGGGGSGGGGSGGGGSQVQLVQSGGGLVQAGGSLRLSCAASVRFFSINTMGWYRQAPGKQRELVADITSSGSTNYADSGKGRFTISRDNAKNTVYLQMNRLKPEDTAVYYCHADYKYTTHNTAWGQGTQVTVSSLEHHHHHH
notes: Bivalent biparatopic nanobody, two VHH in tandem
Regarding B1, the “pEC50 of the PAM effect on G protein coupling (IP1 accumulation with 0.6 nM LY379268, EC20)” value (“pEC50 of the PAM effect” for short) in experiment [1] is 7.65 -log10 M. The values for the pKd in experiment [2] and in experiment [3] were 8.99 -log10 M and 8.54 -log10 M, respectively.

B2: IGF-1262 (IGF-1168 HcAb IGF-1168) (VHH)
chain: QVQLVQSGGGLVQAGGSLRLSCAASVRFFSINTMGWYRQAPGKQRELVADITSSGSTNYADSGKGRFTISRDNAKNTVYLQMNRLKPEDTAVYYCHADYKYTTHNTAWGQGTQVTVSSEPKIPQPQPKPQPQPQPQPQPKPQPKPEPQVQLVQSGGGLVQAGGSLRLSCAASVRFFSINTMGWYRQAPGKQRELVADITSSGSTNYADSGKGRFTISRDNAKNTVYLQMNRLKPEDTAVYYCHADYKYTTHNTAWGQGTQVTVSSLEHHHHHH
With B2, the “pEC50 of the PAM effect” value in experiment [1] is 7.2 -log10 M. Also, in experiment [2], the pKd is 8.23 -log10 M.

B3: IGF-1202 (IGF-1168 HcAb IGF-1159), biparatopic IGF1202-tag6xHIS (VHH)
chain: QVQLVQSGGGLVQAGGSLRLSCAASVRFFSINTMGWYRQAPGKQRELVADITSSGSTNYADSGKGRFTISRDNAKNTVYLQMNRLKPEDTAVYYCHADYKYTTHNTAWGQGTQVTVSSEPKIPQPQPKPQPQPQPQPQPKPQPKPEPQVQLVQSGGGLVQAGGSLRLSCAASGRTFSSFAMAWFRQAPGKEREFVAAISWSGSTGHADSVKGRFTITRDNAKNTVFLQMNSLKPEDTAVYYCALGKGSSYYYSPSGYDYWGQGTQVTVSSLEHHHHHH
B3: the “pEC50, PAM potency (IP1 accumulation)” value in experiment [4] was 9.16 -log10 M. Further, the “pEC50 of the PAM effect” value in experiment [1] is 8.81 -log10 M. Moreover, the “fold increase in the apparent affinity compared to IGF1168” value in experiment [5] worked out at 10 fold. Also, the Kd in experiment [6] is 0.3 nM. The pKd is 9.27 -log10 M in experiment [2] and 8.87 -log10 M in experiment [3].

B4: IGF1202-d2 (red-labeled IGF1202) (VHH)
chain: B3 chain
modifications: d2 fluorophore coupled with d2-NHS, conditions set for 2 to 3 fluorophores per nanobody; sites not stated
notes: also called red-labled IGF1202
Turning to B4, the binding result in experiment [7] is “binds”.

B5: IGF-1261 (IGF-1168 GS IGF-1168) (VHH)
chain: QVQLVQSGGGLVQAGGSLRLSCAASVRFFSINTMGWYRQAPGKQRELVADITSSGSTNYADSGKGRFTISRDNAKNTVYLQMNRLKPEDTAVYYCHADYKYTTHNTAWGQGTQVTVSSGGGGSGGGGSGGGGSQVQLVQSGGGLVQAGGSLRLSCAASVRFFSINTMGWYRQAPGKQRELVADITSSGSTNYADSGKGRFTISRDNAKNTVYLQMNRLKPEDTAVYYCHADYKYTTHNTAWGQGTQVTVSSLEHHHHHH
As for B5, in experiment [1], the “pEC50 of the PAM effect” value is 7.62 -log10 M. Also, the pKd in experiment [2] is 8.51 -log10 M.

B6: IGF-1252 (IGF-1159 HcAb IGF-1168) (VHH)
chain: QVQLVQSGGGLVQAGGSLRLSCAASGRTFSSFAMAWFRQAPGKEREFVAAISWSGSTGHADSVKGRFTITRDNAKNTVFLQMNSLKPEDTAVYYCALGKGSSYYYSPSGYDYWGQGTQVTVSSEPKIPQPQPKPQPQPQPQPQPKPQPKPEPQVQLVQSGGGLVQAGGSLRLSCAASVRFFSINTMGWYRQAPGKQRELVADITSSGSTNYADSGKGRFTISRDNAKNTVYLQMNRLKPEDTAVYYCHADYKYTTHNTAWGQGTQVTVSSLEHHHHHH
notes: as for B1
With B6, the “pEC50 of the PAM effect” value in experiment [1] is 7.94 -log10 M. In addition, the pKd is 8.77 -log10 M in experiment [2] and 8.49 -log10 M in experiment [3].

B7: IGF-1201 (IGF-1168 GS IGF-1159) (VHH)
chain: QVQLVQSGGGLVQAGGSLRLSCAASVRFFSINTMGWYRQAPGKQRELVADITSSGSTNYADSGKGRFTISRDNAKNTVYLQMNRLKPEDTAVYYCHADYKYTTHNTAWGQGTQVTVSSGGGGSGGGGSGGGGSQVQLVQSGGGLVQAGGSLRLSCAASGRTFSSFAMAWFRQAPGKEREFVAAISWSGSTGHADSVKGRFTITRDNAKNTVFLQMNSLKPEDTAVYYCALGKGSSYYYSPSGYDYWGQGTQVTVSSLEHHHHHH
notes: as for B1
With B7, the “pEC50 of the PAM effect” value in experiment [1] is 8.25 -log10 M. The pKd is 9.34 -log10 M in experiment [2] and 8.95 -log10 M in experiment [3].

B8: IGF-1168 nanobody (VHH)
VHH: QVQLVQSGGGLVQAGGSLRLSCAASVRFFSINTMGWYRQAPGKQRELVADITSSGSTNYADSGKGRFTISRDNAKNTVYLQMNRLKPEDTAVYYCHADYKYTTHNTAWGQGTQVTVSS
notes: PAM nanobody, mGlu2 specific; not shown: His tag (nanobodies in the assay are His-tagged)
On to B8, for which, in experiment [4], the “pEC50, PAM potency (IP1 accumulation)” value is 7.22 -log10 M. In experiment [6], the Kd is 4.93 nM.
